In the data set the target is PFV integrase (IN) (prototype foamy virus, UniProt P14350 752-1143). The data set is described as follows: crystal structure.

B1: pre-processed PFV U5 end (17/19 nt) (dsDNA)
DNA 1: TACAAAATTCCATGACA
DNA 2: ATTGTCATGGAATTTTGTA
With B1, the binding result is “binds”.

For the origin of these results see PMC2837123.
